B1: RacA C-terminal region, RacA(71-184) (domain or fragment, B. subtilis, UniProt P45870 71-184, looked up)
chain: RTGFLVQKTSSDTERRIEQLEQKLDTLLQQRQDESELMARMSELERQLKQKADEGVSYQLLQHRREIDDILADLQSLTSQMKEFTAHSIPETAAASEKTKTRKKPLLSLFKFQT
B3: DivIVA C-terminal domain, DivIVA(66-164) (domain or fragment, B. subtilis, UniProt P71021 66-164, looked up)
chain: TLNKSILVAQEAAEDVKRNSQKEAKLIVREAEKNADRIINESLSKSRKIAMEIEELKKQSKVFRTRFQMLIEAQLDLLKNDDWDHLLEYEVDAVFEEKE

Data set [1] has as its target B3. Nature of the data set: ITC.
For a further data set, the target named is T1, RacA DBD K15A (Bacillus subtilis, UniProt P45870 1-70, K15A).
T1 sequence: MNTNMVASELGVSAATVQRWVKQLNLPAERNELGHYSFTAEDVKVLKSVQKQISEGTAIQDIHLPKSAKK
In words: fluorescence polarization.

In another data set the target is T2, RacA FL (Bacillus subtilis, UniProt P45870 1-184).
T2 sequence: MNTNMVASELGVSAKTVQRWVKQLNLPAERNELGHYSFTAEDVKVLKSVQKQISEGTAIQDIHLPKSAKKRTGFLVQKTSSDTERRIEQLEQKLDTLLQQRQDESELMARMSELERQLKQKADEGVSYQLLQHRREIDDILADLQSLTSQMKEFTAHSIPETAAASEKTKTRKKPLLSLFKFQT
Nature of the data set: fluorescence polarization.

In a further data set the target is T3, RacA DBD (Bacillus subtilis, UniProt P45870 1-70).
T3 sequence: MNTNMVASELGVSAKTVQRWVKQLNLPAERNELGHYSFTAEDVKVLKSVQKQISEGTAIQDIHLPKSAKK
Nature of the data set: fluorescence polarization.

The target of the next data set is T4, RacA DBD R30A (Bacillus subtilis, UniProt P45870 1-70, R30A).
T4 sequence: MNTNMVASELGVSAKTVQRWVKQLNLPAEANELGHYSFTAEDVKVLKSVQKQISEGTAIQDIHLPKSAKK
Nature of the data set: fluorescence polarization.

A further data set deals with T5, RacA C-domain (Bacillus subtilis, UniProt P45870 71-184).
T5 sequence: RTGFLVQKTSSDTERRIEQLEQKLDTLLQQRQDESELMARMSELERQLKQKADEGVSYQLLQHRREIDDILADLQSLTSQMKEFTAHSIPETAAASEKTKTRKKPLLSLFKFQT
In words: fluorescence polarization.

For data set [2], the target named is B1. In words: ITC.
Data set [3] addresses B1. Nature of the data set: ITC. This is another data set of the same source.
The target in data set [4] is T6, RacA from FL crystals (proteolyzed) (Bacillus subtilis, UniProt P45870 1-64).
T6 sequence: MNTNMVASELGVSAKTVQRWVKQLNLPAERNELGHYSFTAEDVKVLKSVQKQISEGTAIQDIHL
In words: X-ray crystallography.

Where two headings read alike, the source gives them in different places.

Turning to B1, the “stoichiometry N” value in data set [1] was 1.

B2: 14mer ram centromere site (FP) (dsDNA)
DNA 1: TGACGCCGGCGTCA
DNA 2: TGACGCCGGCGTCA
With B2, the dissociation constant (Kd) in the data set with RacA DBD K15A is around 50 µM; in the data set with RacA FL, 0.0584 ± 0.0003 µM; in the data set with RacA DBD it was 9.2 ± 4 µM; in the data set with RacA DBD R30A it was around 50 µM. For the same molecule, the binding result with RacA C-domain is given as “no binding”.
On to B3, for which the dissociation constant Kd in data set [2] is 1.9 µM. Besides, in data set [3], binding was put at a Kd of 1.5 µM and the “stoichiometry N” value was 1.

B4: 14mer ram site, 5-bromouracil (dsDNA)
DNA 1: TGACGCCGGCGTCA
DNA 2: TGACGCCGGCGTCA
modifications: thymines replaced with 5-bromouracil
As to B4, the binding result in data set [4] is given as “binds”.

Source of the values: article PMC4914108 (Nucleic Acids Research, 2016).
